± gives the uncertainty stated by the source.
Test: protein stability index of a GFP-peptide fusion (yeast GPS) (PSI 1-4); higher = more stable; sorted into four equal gates, so the index is relative within each strain
Outline: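 Peptides tiling yeast proteins in 17-residue segments were fused downstream of GFP, with Cherry expressed from the same plasmid. As a pooled library in yeast, mid-log cultures grown in leucine-free medium were sorted into four equal gates by GFP/Cherry fluorescence ratio. Gate plasmids were PCR-amplified and Illumina-sequenced, and barcodes linked reads to strains. Each peptide received a protein stability index equal to the sum of each gate's read frequency times its gate number.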

Sequence | protein stability index (doa10∆) | protein stability index (pdr5∆) | protein stability index (san1∆) | protein stability index (ubr1∆)
KCQTCQEGMNECPGHFG [RPO21] | 3.34 ± 0.17 | 3.23 ± 0.094 | 3.51 ± 0.086 | 3.26 ± 0.091
IEDRDFLVRYACEPTAE [SIR3] | 2.28 ± 0.064 | 2.83 ± 0.067 | 2.53 ± 0.074 | 3.08 ± 0.069
NTSAKNKNGENKKIGKR [SIR4] | 3.02 ± 0.27 | 3.19 ± 0.14 | 3.03 ± 0.21 | –
PFIKSESKPFSSDALSK [SIR4] | 3.17 ± 0.07 | 3.15 ± 0.09 | 3.2 ± 0.046 | 3.13 ± 0.061
DDLIAEENPIMQTALRR [QCR7] | – | 3.24 ± 0.22 | 2.92 ± 0.15 | 3.06 ± 0.13
GITHFRAGMTHEDEKLI [PRP8] | 2.62 ± 0.079 | 2.47 ± 0.065 | 3.1 ± 0.059 | 3.14 ± 0.044
EEAKEEVTEEQAEATEW [RPS0A] | 3.48 ± 0.12 | 3.49 ± 0.1 | 3.02 ± 0.13 | 3.64 ± 0.091
LQEKEQLYFKKKVNYKV [ISW2] | 2.96 ± 0.15 | 3.23 ± 0.15 | 3.26 ± 0.23 | 3.48 ± 0.12
EEDDEGELEQAQAWINL [RPN7] | 3.58 ± 0.28 | 3.23 ± 0.11 | 3.43 ± 0.11 | 3.26 ± 0.058
EEGINKFKKEKFDIIIV [SRP54] | 2.58 ± 0.05 | 2.61 ± 0.042 | 2.92 ± 0.043 | 2.69 ± 0.057
AVKRGTCAVGVKGKNCV [PRE6] | 1.06 ± 0.11 | 1.62 ± 0.18 | 1.39 ± 0.27 | 2.51 ± 0.17
DINVELFPVAAQDSLTV [RPB8] | 1.33 ± 0.24 | 1.82 ± 0.11 | 1.16 ± 0.23 | 1.94 ± 0.069
VPVANQFINLAGYKKLG [QCR7] | 1.97 ± 0.14 | 2.5 ± 0.13 | 1.94 ± 0.17 | 2.48 ± 0.11
PNFNVEIMQQKFPATNV [ECM29] | 2.25 ± 0.26 | 3 ± 0.2 | – | 2.86 ± 0.17
SSPLGFEETKLSTTPTK [SIR4] | 2.57 ± 0.053 | 2.71 ± 0.063 | 2.6 ± 0.054 | 2.67 ± 0.058
FPKTTVAALRFTAGARA [RPL18A] | 1.58 ± 0.15 | 1.47 ± 0.085 | – | 1.5 ± 0.12
TDLESKSRMINFLDAPG [SNU114] | 2.65 ± 0.078 | 2.95 ± 0.094 | 2.71 ± 0.067 | 2.8 ± 0.047
FSFGAKANEKKESDESK [YJL041W/NSP1] | 2.58 ± 0.12 | 3.38 ± 0.089 | 3.52 ± 0.078 | 3.18 ± 0.18
ELLLTTLSVSHGINLQN [SSN2] | 1.89 ± 0.044 | 2.04 ± 0.043 | 1.76 ± 0.081 | 2.19 ± 0.059
TKKPLMVKNVKPSSPPD [SIR4] | 2.93 ± 0.061 | 2.66 ± 0.039 | 2.55 ± 0.058 | 2.69 ± 0.05
IQKESTLHLVLRLRGGI [RPL40A] | 2.48 ± 0.11 | 2.6 ± 0.071 | 2.35 ± 0.1 | 2.54 ± 0.058
KKENLTRDETVSLIKKY [YML103C/NUP188] | 2.82 ± 0.065 | 2.83 ± 0.1 | 2.55 ± 0.096 | 2.6 ± 0.078
IGGSLARIALRHLEKEG [RPS25A] | 2.52 ± 0.068 | 2.5 ± 0.054 | 1.82 ± 0.082 | 2.51 ± 0.06
QLYKRDPVSGAILVPMT [YJR042W/NUP85] | 1.95 ± 0.18 | 1.75 ± 0.24 | 2.6 ± 0.099 | 2.67 ± 0.13
LFQTIEKLINNSDDCMM [ECM29] | 3.1 ± 0.083 | 2.92 ± 0.072 | 3.09 ± 0.063 | 3.03 ± 0.09
